According to US20230270825A1, “STAPLED OLEFIN CO-AGONISTS OF THE GLUCAGON AND GLP-1 RECEPTORS” (Merck Sharp & Dohme LLC, priority 2019, published 2023):
Blank lines part the entries; values can stand above or below the molecule they belong to. Numbered stars: 1 amine (or outer) side, 2 acyl side, 3 side chain; on linkers, the order of the positions; unused ones are H or OH. Bridge positions count the residues as written; N and C are the ends. Square brackets hold non-standard residues; d marks the D form. Side chains are listed from the residue outwards. Ends that are not written are not given here. Peptide text beside a SMILES is read from it. * marks the point of attachment. R6me = (R)-2-amino-2-methyloct-7-enoic acid, C=CCCCC[C@@](C)(N[*:1])C(=O)[*:2]; Nle(6-ylidene) = O=C([C@H](CCCC=[*:3])N[*:1])[*:2]; S7 = C[C@@](CCCCCC=[*:3])(N[*:1])C(=O)[*:2]; X1 = C[C@](CCCCC=[*:3])(N[*:1])C(=O)[*:2]; γGlu = O=C(O)[C@H](CCC(=O)[*:2])N[*:1]; Palmitoyl = CCCCCCCCCCCCCCCC(=O)*; S5 = C=CCCC[C@](C)(N)C(=O)O; Aib = CC(C)(N)C(=O)O

Legend:
human GCGR = target: T1, human GCGR (Homo sapiens, UniProt P47871); experiment: cAMP activity assay, cells expressing human GCGR (HitHunter cAMP XS); format: cell-based
T1 construct: expressed in transfected cells; assay-ready frozen cells grown with Blasticidin and Hygromycin
Experimental: Activity of the peptides at the Glucagon receptor (GCGR) and GLP-1 receptor (GLP1R) was measured in a cAMP activity assay.
Peptides were dissolved in 100% DMSO and serially diluted to generate 10 point titrations. The peptide solutions were then transferred into 384-well assay plates (150 nL/well).
Assay ready frozen cells expressing human GLP1R or human GCGR were suspended in growth media consisting of DMEM medium (GIBCO), 10% FBS (GIBCO), 1x NEAA(GIBCO), 1x P/S (GIBCO), 10ug/ml Blasticidin (GIBCO) and 200 µg/mL Hygromycin (GIBCO). Cells were then diluted in assay buffer consisting of PBS (GIBCO), 7.5% BSA (Perkin Elmer), 100 µM RO 20-1724 (Sigma), with or without 20% human serum (MP Biomedical). The cell suspensions (15 µL) were then added to the assay plates containing the peptide solutions (30,000 cells/well for human GCGR; 10.000 cells/well for human GLP1R). The cells were incubated for 1 hour at room temperature in the dark. Production of cAMP was determined using HitHunter™ cAMPXS kits (DiscoverX) following manufacturer protocol. The plates were incubated for overnight at room temperature in the dark. Luminescence was measured using an EnVision Multilabel plate reader (Perkin Elmer). Native GLP-1 and Glucagon (Bachem) are used as control peptides. EC50 values were calculated using uses a 4 parameter logistic fit based on the Levenberg-Marquardt algorithm.

[1] = target: human Glucagon receptor (GCGR) (human, UniProt P47871); experiment: cell-based or functional assay
[2] = target: human GLP-1 receptor (GLP1R) (human, UniProt P43220); experiment: cell-based or functional assay

T1 sequence (P47871 26-477): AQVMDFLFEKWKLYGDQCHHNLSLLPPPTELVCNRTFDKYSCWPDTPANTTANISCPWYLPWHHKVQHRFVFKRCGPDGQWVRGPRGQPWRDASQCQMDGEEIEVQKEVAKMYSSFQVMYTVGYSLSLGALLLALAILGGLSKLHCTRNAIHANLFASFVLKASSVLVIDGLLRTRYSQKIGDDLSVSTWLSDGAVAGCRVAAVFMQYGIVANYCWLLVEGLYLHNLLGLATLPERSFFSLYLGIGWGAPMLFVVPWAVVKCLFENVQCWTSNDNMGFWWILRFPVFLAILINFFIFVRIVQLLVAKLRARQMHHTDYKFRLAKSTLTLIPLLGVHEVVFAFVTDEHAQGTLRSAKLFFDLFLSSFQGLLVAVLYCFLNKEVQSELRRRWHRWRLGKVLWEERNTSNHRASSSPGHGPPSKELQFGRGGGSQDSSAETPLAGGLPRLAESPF

Molecule: CCCCCCCCCCCCCCCC(=O)N[C@@H](CCC(=O)N[C@@H](CCC(=O)NCCCC[C@H](NC(=O)[C@H](CC(=O)O)NC(=O)[C@H](CO)NC(=O)[C@@H](NC(=O)[C@H](Cc1ccccc1)NC(=O)[C@@H](NC(=O)CNC(=O)[C@H](CCC(N)=O)NC(=O)[C@@H](CO)NC(=O)[C@@H](N)Cc1c[nH]cn1)[C@@H](C)O)[C@@H](C)O)C(=O)N[C@@H](CO)C(=O)N[C@@H](CCCCN)C(=O)N[C@@H](Cc1ccc(O)cc1)C(=O)N[C@@H](CC(C)C)C(=O)N[C@@H](CC(=O)O)C(=O)N[C@@H](CCC(=O)O)C(=O)N[C@]1(C)CCCCC=CCCCCC[C@@](C)(C(=O)N[C@@H](Cc2c[nH]c3ccccc23)C(=O)N[C@@H](CC(C)C)C(=O)N[C@@H](CC(C)C)C(=O)N[C@@H](CC(=O)O)C(=O)N[C@H](C(N)=O)[C@@H](C)O)NC(=O)[C@H](C(C)C)NC(=O)[C@H](Cc2ccccc2)NC(=O)[C@H](CC(=O)O)NC(=O)[C@H](CCC(N)=O)NC(=O)[C@H](C)NC(=O)[C@H](C)NC1=O)C(=O)O)C(=O)O [compound 8] (H-H[dS]QGTFTSDK([γGlu-γGlu-Palmitoyl])SKYLDE[X1]AAQDFV[S7]WLLDT-NH2; staple 17-24)
EC50 (human GCGR; cAMP production, 1 hour at room temperature, assay buffer with or without 20% human serum (not stated which)): 5 nM

Molecule: CC(C)C[C@H](NC(=O)[C@H](Cc1ccc(O)cc1)NC(=O)[C@H](CCCCN)NC(=O)[C@H](CO)NC(=O)[C@H](CCCCN)NC(=O)[C@H](CC(=O)O)NC(=O)[C@H](CO)NC(=O)[C@@H](NC(=O)[C@H](Cc1ccccc1)NC(=O)[C@@H](NC(=O)CNC(=O)[C@H](CCC(N)=O)NC(=O)[C@@H](CO)NC(=O)[C@@H](N)Cc1c[nH]cn1)[C@@H](C)O)[C@@H](C)O)C(=O)N[C@@H](CC(=O)O)C(=O)N[C@@H](CCC(=O)O)C(=O)N[C@@H](CCCNC(=N)N)C(=O)N[C@@H](C)C(=O)N[C@@H](C)C(=O)N[C@H]1CCCC=CCCC[C@@H](C(=O)N[C@@H](Cc2c[nH]c3ccccc23)C(=O)N[C@@H](CC(C)C)C(=O)N[C@@H](CC(C)C)C(=O)N[C@@H](CC(=O)O)C(=O)N[C@H](C(N)=O)[C@@H](C)O)NC(=O)[C@H](C(C)C)NC(=O)[C@H](Cc2ccccc2)NC(=O)[C@H](CC(=O)O)NC1=O [compound 17] (H-H[dS]QGTFTSDKSKYLDERAA[Nle(6-ylidene)]DFV[Nle(6-ylidene)]WLLDT-NH2; staple 20-24)
hGCGR/hGLP1R (hTone) (human GCGR; ratio of human GCGR EC50 to human GLP1R EC50): 1.42

Molecule: H[dS]QGTFTSDKS[R6me]YLDERA[S7]QDFVQWLLDT-NH2 (staple 12-19) [peptide of SEQ ID NO: 6 (TP397)]
GCGR EC50 human (cAMP activity assay) [1]: 20 nM | GLP1R EC50 human (cAMP activity assay) [2]: 5.3 nM

Second part, the molecule after the results:

GCGR EC50 human (cAMP activity assay) [1]: 4.56 nM | GLP1R EC50 human (cAMP activity assay) [2]: 0.13 nM
B1: peptide of SEQ ID NO: 14 (TP402) (peptide)
peptide: H[Aib]QGTFTSDK([γGlu-γGlu-Palmitoyl])SKYLD[Aib]RAAQDFV[S5]WLM[S5]TK-NH2
modifications: staple 24-28; not fully specified (residue 30); printed as HUQGTFTSDK(γEγEC16)SKYLDURAAQDFV*S5meWLM*S5meTKγE-NH2; also: Lys 30 conjugated by a gamma-glutamic acid (KγE)

GCGR EC50 human (cAMP activity assay) [1]: 8.64 nM | GLP1R EC50 human (cAMP activity assay) [2]: 0.45 nM
Molecule: H[dS]QGTFTSDK([γGlu-γGlu-Palmitoyl])SKYLDERAA[R6me]DFVQWL[S7]DT-NH2 (staple 20-27) [peptide of SEQ ID NO: 10 (TP399)]

GCGR EC50 human (cAMP activity assay) [1]: 5 nM | GLP1R EC50 human (cAMP activity assay) [2]: 2.74 nM
Molecule: H[dS]QGTFTSDKSKYLDERAA[R6me]DFVQWL[S7]DT-NH2 (staple 20-27) [peptide of SEQ ID NO: 11 (TP 399)]

GCGR EC50 human (cAMP activity assay) [1]: 5 nM | GLP1R EC50 human (cAMP activity assay) [2]: 0.26 nM
B2: peptide of SEQ ID NO: 13 (TP401) (peptide)
peptide: H[Aib]QGTFTSDK([γGlu-γGlu-Palmitoyl])SKYLD[Aib]RAAQ[R6me]FVQWLM[S7]TK-NH2
modifications: staple 21-28; not fully specified (residue 30); printed as HUQGTFTSDK(γEγEC16)SKYLDURAAQ*R6meFVQWLM*S7meTKγE-NH2; also: Lys 30 conjugated by a gamma-glutamic acid (KγE)
